Patent US20060217299

Assays:
[1] = target: GST-XIP (D39A) [GST: P08515]
[2] = target: GST [GST: P08515]
[3] = target: GST-XIP (D25A, D70A)
[4] = target: GST-XIP (D25A)
[5] = target: GST-XIP (D25A, D70A, D80A)
[6] = target: GST-XIP (D70A)
[7] = target: GST-XIP (D58A)

B1: caspase-1 (Calbiochem, Co., Ltd.) (protein)
chain: NPAMPTSSGSEGNVKLCSLEEAQRIWKQKSAEIYPIMDKSSRTRLALIICNEEFDSIPRRTGAEVDITGMTMLLQNLGYSVDVKKNLTASDMTTELEAFAHRPEHKTSDSTFLVFMSHGIREGICGKKHSEQVPDILQLNAIFNMLNTKNCPSLKDKPKVIIIQACRGDSPGVVWFKDSVGVSGNLSLPTTEEFEDDAIKKAHIEKDFIAFCSSTPDNVSWRHPTMGSVFIGRLIEHMQEYACSCDVEEIFRKVRFSFEQPDGRAQMPTTERVTLTRCFYLFPGH
caspase-1 protease assay (SDS-PAGE, western blotting with anti-GST antibody) [1]: fragment located at the higher molecular weight side was detected; fragment located at the lower molecular weight side was detected when using GST-XIP (D39A)
caspase-1 protease assay (SDS-PAGE, western blotting with anti-GST antibody) [2]: GST was not cleaved by caspase-1
caspase-1 protease assay (SDS-PAGE, western blotting with anti-GST antibody) [3]: When using GST-XIP (D25A, D70A) as a substrate, a new fragment other than the aforementioned fragments was detected
caspase-1 protease assay (SDS-PAGE, western blotting with anti-GST antibody) [4]: fragment located at the higher molecular weight side was detected; fragment located at the lower molecular weight side not detected when using GST-XIP (D25A)
caspase-1 protease assay (SDS-PAGE, western blotting with anti-GST antibody) [5]: This fragment was not detected when using GST-XIP (D25A, D70A, D80A) as a substrate
caspase-1 protease assay (SDS-PAGE, western blotting with anti-GST antibody) [6]: fragment located at the higher molecular weight side not detected when using GST-XIP (D70A); fragment located at the lower molecular weight side was detected
caspase-1 protease assay (SDS-PAGE, western blotting with anti-GST antibody) [7]: fragment located at the higher molecular weight side was detected; fragment located at the lower molecular weight side was detected when using GST-XIP (D58A)
